Assay results taken from patent US20200354457A1 (Hoffmann-La Roche, published 2020).
Changes are numbered by the printed parent chain. Several values for one entry are separate records, joined by “and”; a condition that tells them apart may be missing. Equal entries are not always repeated. Blank lines part the entries; values can stand above or below the binder they belong to.

Columns and labels:
[1] = target: T1, soluble human Lag3-IgG1-Fc with biotinylated C-terminal Avi-tag (human, biotin on the C-terminal Avi-tag); test: A375 MHCII competition ELISA, biotinylated Lag3 250 ng/ml; competitor MHCII on A375 cells
T1 construct: also called LAG3-Fc-avi; biotinylated LAG3-Fc antigen

[2] = target: T2, recombinant human LAG3 Fc Chimera Protein (R&D Systems, 2319-L3) (human, UniProt P18627 23-450); test: ELISA, plate coated with human LAG3 Fc chimera
T2 construct: Bought reagent
T2 sequence (looked up): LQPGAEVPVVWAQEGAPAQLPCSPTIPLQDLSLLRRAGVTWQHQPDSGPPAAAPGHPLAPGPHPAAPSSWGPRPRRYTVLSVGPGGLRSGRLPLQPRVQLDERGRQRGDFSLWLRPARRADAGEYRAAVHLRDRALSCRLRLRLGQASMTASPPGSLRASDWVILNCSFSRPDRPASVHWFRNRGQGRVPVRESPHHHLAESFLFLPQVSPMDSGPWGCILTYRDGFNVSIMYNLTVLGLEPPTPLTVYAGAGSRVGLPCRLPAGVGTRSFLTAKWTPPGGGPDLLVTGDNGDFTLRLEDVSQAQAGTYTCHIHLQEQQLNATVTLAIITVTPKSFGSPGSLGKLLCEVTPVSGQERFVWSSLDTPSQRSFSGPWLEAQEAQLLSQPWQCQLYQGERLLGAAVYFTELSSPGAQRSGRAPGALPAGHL

[3] = target: T3, human LAG3 on recombinant CHO cells (human, UniProt P18627 23-525); test: cell ELISA on CHO cells expressing human LAG3;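 further: bivalent Fc-format binders titrated in threefold steps from 6 µg/mL, incubated with the cells 2 h at 4 °C, bound antibody detected by HRP-coupled anti-human IgG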
T3 construct: whole, on cells; also called Lag3 cells; recombinant CHO cells expressing Lag3
T3 sequence (looked up): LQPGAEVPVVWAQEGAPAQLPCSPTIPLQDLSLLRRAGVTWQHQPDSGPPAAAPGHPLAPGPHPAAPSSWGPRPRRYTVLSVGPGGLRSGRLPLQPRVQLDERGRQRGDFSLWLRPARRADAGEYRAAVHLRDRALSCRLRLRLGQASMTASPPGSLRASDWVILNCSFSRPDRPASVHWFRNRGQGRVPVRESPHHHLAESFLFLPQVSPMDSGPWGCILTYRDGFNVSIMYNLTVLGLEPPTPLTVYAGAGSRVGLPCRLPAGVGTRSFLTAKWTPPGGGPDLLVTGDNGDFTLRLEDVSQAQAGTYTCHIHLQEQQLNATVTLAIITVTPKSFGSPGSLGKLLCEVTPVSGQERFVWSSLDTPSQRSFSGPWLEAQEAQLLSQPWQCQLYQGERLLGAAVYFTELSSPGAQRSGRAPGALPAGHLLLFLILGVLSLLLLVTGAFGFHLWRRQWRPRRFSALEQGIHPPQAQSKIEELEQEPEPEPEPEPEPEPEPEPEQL

[4] = target: T2, recombinant human LAG3 Fc Chimera …; test: SPR (Biacore), aVH-Fc captured by anti-human Fc, human LAG-3 Fc chimera as analyte, 25 C
[5] = target: T1, soluble human Lag3-IgG1-Fc with …; test: A375 MHCII competition ELISA at 3 µg/ml, biotinylated Lag3 250 ng/ml; competitor MHCII on A375 cells
[6] = target: T4, Lag3 on Lag3+ NFAT Jurkat effector cells (Promega #CS194801); test: cell-based or functional assay
[7] = target: T5, murine LAG3-Fc antigen (R&D Systems, 3328-L3-050) (murine, UniProt Q61790 24-442); test: ELISA using murine LAG3-Fc antigen
T5 construct: Bought reagent
T5 sequence (looked up): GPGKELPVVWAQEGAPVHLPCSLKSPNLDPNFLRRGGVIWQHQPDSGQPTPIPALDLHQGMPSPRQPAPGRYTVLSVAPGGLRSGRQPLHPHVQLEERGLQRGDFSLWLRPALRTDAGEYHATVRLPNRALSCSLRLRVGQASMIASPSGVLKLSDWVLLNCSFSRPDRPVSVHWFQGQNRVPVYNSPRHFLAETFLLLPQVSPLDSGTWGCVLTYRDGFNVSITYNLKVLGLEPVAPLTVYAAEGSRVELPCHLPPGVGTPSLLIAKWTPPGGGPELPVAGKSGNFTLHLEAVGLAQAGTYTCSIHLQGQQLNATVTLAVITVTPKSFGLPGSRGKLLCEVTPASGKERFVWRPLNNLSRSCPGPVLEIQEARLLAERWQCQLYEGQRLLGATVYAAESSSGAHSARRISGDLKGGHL

[8] = target: T4, Lag3 on Lag3+ NFAT Jurkat effector …; test: cell-based or functional assay; remark: listed apart in the source
[9] = target: T6, cynomolgus LAG3 on transiently transfected HEK293F cells (cynomolgus); test: flow cytometry on HEK293F cells transfected with cyno LAG3, 10 µg/ml
T6 construct: whole, on cells; also called cyno LAG3; cynomolgus Lag3-positive HEK cells

[10] = target: T7, Lag3 on cynomolgus PBMC/T cells (cynomolgus); test: flow cytometry, non-activated cynomolgus PBMC, 10 µg/ml
T7 construct: whole, on cells

[11] = target: T7, Lag3 on cynomolgus PBMC/T cells; test: flow cytometry, CD3/CD28-activated cynomolgus PBMC, 10 µg/ml
[12] = target: T8, biotinylated DR5-Fc-avi (extracellular domain of Death receptor 5, amino acids 1 to 152, fused to human IgG1 … (biotin on the C-terminal avi-tag)); test: ELISA, biotinylated DR5 antigen on neutravidin plates, bacterial supernatants, anti-Flag/HRP
T8 construct: also called DRS; Death receptor 5 ECD

B2: bivalent P21A03 aVH-Fc (Fc fusion)
chain: EVQLVESGGGLVQPGGSLRLSCAASGFNIKDTCIGWVRRAPGKGTELVAEICEDIGYTRYADSVKGRFTISADTSKNTAYLQMNSLRAEDTAVYYCAANEHSVGFNYWGQGTTVTVSSGGGGSGGGGSDKTHTCPPCPAPEAAGGPSVFLFPPKPKDTLMISRTPEVTCVVVDVSHEDPEVKFNWYVDGVEVHNAKTKPREEQYNSTYRVVSVLTVLHQDWLNGKEYKCKVSNKALGAPIEKTISKAKGQPREPQVYTLPPSRDELTKNQVSLTCLVKGFYPSDIAVEWESNGQPENNYKTTPPVLDSDGSFFLYSKLTVDKSRWQQGNVFSCSVMHEALHNHYTQKSLSLSPGK
Percentage of Lag3 positive cells [10]: 20.8%
IC50 [1]: 0.0581 µg/mL and 0.8 nM
EC50 [2]: 0.0901 µg/mL and 1.2 nM
OD max [2]: 1.8 OD
EC50 [3]: 0.0401 µg/mL and 0.5 nM
OD max [3]: 1.2 OD
koff [4]: 1e-05 s⁻¹
t1/2 [4]: 19.3 h
% Inhibition [5]: 97.4%
IC50 for near-complete reduction of luciferase activity (modified NFAT Lag3 reporter assay, Lag3+ Jurkat cells alone) [6]: 0.078 µg/mL
binding result [7]: no binding
EC50 of restoration of the NFAT luciferase signal (NFAT Lag3 reporter assay: Lag3+ Jurkat, Raji cells, SED) [8]: 3.31 µg/mL
Percentage of Lag3 positive cells [11]: 52.2%

B9: SEQ ID NO 28 (VHH)
VHH: EVQLVESGGGLVQPGGSLRLSCAASGFNIKDTYIGWVRRAPGKGEELVARIYPTNGYTRYADSVKGRFTISADTSKNTAYLQMNSLRAEDTAVYYCAKRSHYSYFDYWGQGTLVTVSS
notes: Tested as bacterial supernatant; the range 21-28 may alternate DNA and protein entries
binding result [12]: binds

B10: SEQ ID NO 22 (VHH)
VHH: EVQLVESGGGLVQPGGSLRLSCAASGFNIKDTYIGWVRRAPGKGEELVARIYPTNGYTRYADSVKGRFTISADTSKNTAYLQMNSLRAEDTAVYYCAKYVRYFDYWGQGTLVTVSS
notes: as for B9
binding result [12]: binds

B11: SEQ ID NO 24 (VHH)
VHH: EVQLVESGGGLVQPGGSLRLSCAASGFNIKDTYIGWVRRAPGKGEELVARIYPTNGYTRYADSVKGRFTISADTSKNTAYLQMNSLRAEDTAVYYCAKYYPRTYLDFDYWGQGTLVTVSS
notes: as for B9
binding result [12]: binds

The remaining lines, values ahead:

IC50 [1]: 0.113 µg/mL and 1.5 nM
EC50 [2]: 0.0157 µg/mL and 0.2 nM
OD max [2]: 1.1 OD
EC50 [3]: 0.0428 µg/mL and 0.6 nM
OD max [3]: 1.3 OD
koff [4]: 1.8e-05 s⁻¹
t1/2 [4]: 1.78 h
% Inhibition [5]: 96.7%
IC50 for near-complete reduction of luciferase activity (modified NFAT Lag3 reporter assay, Lag3+ Jurkat cells alone) [6]: 0.064 µg/mL
binding result [7]: no binding
EC50 of restoration of the NFAT luciferase signal (NFAT Lag3 reporter assay: Lag3+ Jurkat, Raji cells, SED) [8]: 0.6 µg/mL
LAG3 positive cells (%) [9]: 78.9%
Signal intensity (Geo Mean) [9]: 2750 Geo Mean
B1: bivalent 21B11 aVH-Fc (Fc fusion)
chain: B2 chain with E53Q, N99D, H101S, S102V, V103D, G104N, N106K

IC50 [1]: 0.104 µg/mL and 1.4 nM
EC50 [2]: 0.0145 µg/mL and 0.2 nM
OD max [2]: 1.2 OD
EC50 [3]: 0.0354 µg/mL and 0.5 nM
OD max [3]: 1.4 OD
koff [4]: 0.00018 s⁻¹
t1/2 [4]: 1.1 h
% Inhibition [5]: 91.7%
binding result [7]: no binding
LAG3 positive cells (%) [9]: 63.6%
Signal intensity (Geo Mean) [9]: 1980 Geo Mean
B3: bivalent 17D7 aVH-Fc (Fc fusion)
chain: B2 chain with E53T, N99G, H101G, V103S, N106H

Percentage of Lag3 positive cells [10]: 16.9%
IC50 [1]: 0.0933 µg/mL and 1.2 nM
EC50 [2]: 0.113 µg/mL and 1.5 nM
OD max [2]: 0.9 OD
EC50 [3]: 0.029 µg/mL and 0.4 nM
OD max [3]: 1.2 OD
koff [4]: 0.00011 s⁻¹
t1/2 [4]: 1.7 h
% Inhibition [5]: 93.4%
IC50 for near-complete reduction of luciferase activity (modified NFAT Lag3 reporter assay, Lag3+ Jurkat cells alone) [6]: 0.104 µg/mL
binding result [7]: no binding
EC50 of restoration of the NFAT luciferase signal (NFAT Lag3 reporter assay: Lag3+ Jurkat, Raji cells, SED) [8]: 4.14 µg/mL
Percentage of Lag3 positive cells [11]: 61.7%
B4: bivalent P10D1 aVH-Fc (Fc fusion)
chain: B2 chain with N28S, G35A, N99K, H101A, S102G, N106D

IC50 [1]: 0.242 µg/mL and 3.2 nM
EC50 [2]: 0.123 µg/mL and 1.6 nM
OD max [2]: 0.8 OD
EC50 [3]: 0.0735 µg/mL and 1 nM
OD max [3]: 1.2 OD
koff [4]: 8.9e-05 s⁻¹
t1/2 [4]: 2.17 h
% Inhibition [5]: 84.9%
binding result [7]: no binding
EC50 of restoration of the NFAT luciferase signal (NFAT Lag3 reporter assay: Lag3+ Jurkat, Raji cells, SED) [8]: 3.9 µg/mL
B5: bivalent P10C3 aVH-Fc (Fc fusion)
chain: B2 chain with E53T, I55A, N99S, H101S, S102P, V103S, N106R

Percentage of Lag3 positive cells [10]: 24.4%
IC50 [1]: 0.0408 µg/mL and 0.5 nM
EC50 [2]: 0.0132 µg/mL and 0.2 nM
OD max [2]: 1.9 OD
EC50 [3]: 0.0173 µg/mL and 0.2 nM
OD max [3]: 1.2 OD
koff [4]: 2e-05 s⁻¹
t1/2 [4]: 9.82 h
% Inhibition [5]: 96.3%
IC50 for near-complete reduction of luciferase activity (modified NFAT Lag3 reporter assay, Lag3+ Jurkat cells alone) [6]: 0.038 µg/mL
binding result [7]: no binding
EC50 of restoration of the NFAT luciferase signal (NFAT Lag3 reporter assay: Lag3+ Jurkat, Raji cells, SED) [8]: 0.65 µg/mL
Percentage of Lag3 positive cells [11]: 54.1%
B6: bivalent P9G1 aVH-Fc (Fc fusion)
chain: B2 chain with E53Q, A98G, N99E, H101G, S102A, V103T, G104N, N106K

IC50 [1]: 0.0762 µg/mL and 1 nM
EC50 [2]: 0.0194 µg/mL and 0.3 nM
OD max [2]: 1.2 OD
EC50 [3]: 0.0288 µg/mL and 0.4 nM
OD max [3]: 1.3 OD
koff [4]: 0.00019 s⁻¹
t1/2 [4]: 1.02 h
% Inhibition [5]: 95.5%
binding result [7]: no binding
LAG3 positive cells (%) [9]: 68.8%
Signal intensity (Geo Mean) [9]: 2060 Geo Mean
B7: bivalent 9B4 aVH-Fc (Fc fusion)
chain: B2 chain with E53Q, N99V, H101V, S102A, V103E, G104Y, N106E

Percentage of Lag3 positive cells [10]: 17%
IC50 [1]: 0.224 µg/mL and 3 nM
EC50 [2]: 0.0342 µg/mL and 0.5 nM
OD max [2]: 1 OD
EC50 [3]: 0.0636 µg/mL and 0.8 nM
OD max [3]: 1.3 OD
koff [4]: 0.00029 s⁻¹
t1/2 [4]: 0.672 h
% Inhibition [5]: 91.9%
binding result [7]: no binding
LAG3 positive cells (%) [9]: 80.3%
Signal intensity (Geo Mean) [9]: 2560 Geo Mean
Percentage of Lag3 positive cells [11]: 54.3%
B8: bivalent 19G3 aVH-Fc (Fc fusion)
chain: B2 chain with D31Y, T32Q, E53S, D54Y, I55D, N99E, H101S, S102V, V103E, N106I
